Data: PMC5700061
One block for each substance: values may come before it.

Legend:
[1] = target: Furin-resistant mouse proBrain-Derived Neurotrophic Factor (proBDNF) (mouse) (UniProt P21237); assay: SPR; MX96 (IBIS); NGF, proNGF and proBDNF amine-coupled to a P-COOH SensEye sensor, s-sortilin flowed over as analyte; 25 mM MES pH 5.0, 150 mM NaCl, 0.005% Tween 20, 25 °C; equilibrium binding, 1:1 Langmuir model
[2] = target: Mouse Nerve Growth Factor (NGF) (mouse) (UniProt P01139); assay: as above
Mouse Nerve Growth Factor (NGF) (mouse), sequence (P01139 122-241): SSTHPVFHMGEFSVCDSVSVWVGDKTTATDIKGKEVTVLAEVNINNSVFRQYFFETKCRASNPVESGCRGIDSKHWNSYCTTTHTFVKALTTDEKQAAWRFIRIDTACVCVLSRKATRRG

[3] = target: Mouse sortilin luminal segment (s-sortilin), wild type, native glycans (mouse); assay: SEC-MALS; Superdex 200 10/300 GL, 10 µl of 10 mg mL^-1 injected, 0.5 ml min^-1; 25 mM MES pH 5.0, 150 mM NaCl
[4] = target: Furin-resistant mouse proBrain-Derived Neurotrophic Factor (proBDNF) (mouse) (UniProt P21237); assay: SPR; equilibrium binding, IBIS MX96; NGF, proNGF and proBDNF amine-coupled, s-sortilin as analyte; 25 mM MES pH 5.0, 150 mM NaCl, 0.005% Tween 20, 25 °C; 1:1 Langmuir model
[5] = target: Furin-resistant mouse proBrain-Derived Neurotrophic Factor (proBDNF) (mouse) (UniProt P21237); assay: SPR; equilibrium binding, IBIS MX96; NGF, proNGF and proBDNF amine-coupled, s-sortilin as analyte; 25 mM HEPES pH 7.4, 150 mM NaCl, 0.005% Tween 20, 25 °C; 1:1 Langmuir model

Kd [1]: 2.28 µM
Kd [2]: 0.73 µM
Substance: Mouse s-sortilin A464E, native glycans (domain or fragment)

stoichiometry N [3]: 2
Substance: Mouse sortilin luminal segment (s-sortilin), wild type, native glycans (domain or fragment)

fold reduction of binding at pH 5.0 against pH 7.4 [4]: 4 fold
Kd [5]: 0.4 µM
Substance: s-sortilin A464E (dimerization interface mutant of the mouse sortilin luminal segment) (domain or fragment)
